The values below are quoted from earlier work in PMC8087844.

By Kd is commonly meant the equilibrium constant for the complex coming apart.

In the data set the target is IL2R alpha (CD25) (Homo sapiens) (UniProt P01589).
Sequence of UniProt P01589 (P01589 22-240): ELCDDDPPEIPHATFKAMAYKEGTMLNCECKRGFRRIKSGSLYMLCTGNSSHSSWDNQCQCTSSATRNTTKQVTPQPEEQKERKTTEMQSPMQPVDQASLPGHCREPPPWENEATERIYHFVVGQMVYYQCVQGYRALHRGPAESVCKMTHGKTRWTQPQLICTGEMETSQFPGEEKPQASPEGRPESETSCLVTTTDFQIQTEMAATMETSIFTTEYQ

With Daclizumab, the Kd was 0.3 nM.
